B1: TRIM43 (parent)
chain: NNSWIRKNSTMVNSEDIFLLLCLK
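Further: lentivirally expressed fusions sorted by FACS into six bins by GFP to DsRed ratio, PSI derived from sequencing read proportions per bin multiplied by bin number.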

Variants of: B1
Assay: protein stability index of a GFP-peptide fusion (GPS, HEK-293T) (PSI 1-6); higher = more stable
Details: c terminus: a fixed tail appended
NNSWIRKNSTMVNIEDIFLLLCLK gave a protein stability index of 2.62.
Work on NNSWIRKNSTMVNREDIFLLLCLK yielded a protein stability index of 2.77.
Work on NNSWIRKNSTMVNKEDIFLLLCLK yielded a protein stability index of 2.36.
Work on NNSWIRKNSTMVNVEDIFLLLCLK yielded a protein stability index of 3.6.
NNSWIRKNSTMVNQEDIFLLLCLK showed a protein stability index of 3.26.
Variant NNSWIRKNSTMVNHEDIFLLLCLK has a protein stability index of 2.12.
For NNSWIRKNSTMVNPEDIFLLLCLK, the protein stability index was 2.1.
With NNSWIRKNSTMVNCEDIFLLLCLK the protein stability index was 2.79.
In the case of NNSWIRKNSTMVNFEDIFLLLCLK, the protein stability index is reported as 2.64.
NNSWIRKNSTMVNYEDIFLLLCLK gave a protein stability index of 2.89.
NNSWIRKNSTMVNEEDIFLLLCLK gave a protein stability index of 2.08.
Variant NNSWIRKNSTMVNLEDIFLLLCLK has a protein stability index of 2.31.
NNSWIRKNSTMVNSEDINLLLCLK showed a protein stability index of 1.54.
For NNSWIRKNSTMVNSEDIILLLCLK, the protein stability index was 3.7.
With NNSWIRKNSTMVNSEDIWLLLCLK the protein stability index was 2.46.
NNSWIRKNSTMVNSEDIHLLLCLK showed a protein stability index of 2.42.
For NNSWIRKNSTMVNSEDIPLLLCLK, the protein stability index was 1.85.
NNSWIRKNSTMVNSEDIQLLLCLK gave a protein stability index of 2.5.
NNSWIRKNSTMVNSEDIELLLCLK showed a protein stability index of 1.47.
Variant NNSWIRKNSTMVNSEDIMLLLCLK has a protein stability index of 4.64.
In the case of NNSWIRKNSTMVNSEDIRLLLCLK, the protein stability index is reported as 2.63.
NNSWIRKNSTMVNSEDICLLLCLK gave a protein stability index of 2.71.
In the case of NNSWIRKNSTMVNSEDIDLLLCLK, the protein stability index is reported as 2.42.
Work on NNSWIRKNSTMVNSEDIALLLCLK yielded a protein stability index of 1.7.
In the case of NNSWIRKNSTMVNSEDISLLLCLK, the protein stability index is reported as 1.64.
With NNSWIRKNSTMVNSEDIGLLLCLK the protein stability index was 1.51.
NNSWIRKNSTMVNSEDIKLLLCLK showed a protein stability index of 2.23.
In the case of NNSWIRKNSTMVNSEDILLLLCLK, the protein stability index is reported as 2.54.
Work on NNSWIRKNSTMVNSEDIYLLLCLK yielded a protein stability index of 4.65.
Variant NNSWIRKNSTMVNSEDIVLLLCLK has a protein stability index of 2.92.
For NNSWIRKNSTMVNSEDITLLLCLK, the protein stability index was 1.83.
NNSWIRKNSTMVNSEDIFLLCCLK showed a protein stability index of 3.87.
NNSWIRKNSTMVNSEDIFLLACLK showed a protein stability index of 2.13.
In the case of NNSWIRKNSTMVNSEDIFLLFCLK, the protein stability index is reported as 1.95.
NNSWIRKNSTMVNSEDIFLLHCLK gave a protein stability index of 2.39.
With NNSWIRKNSTMVNSEDIFLLDCLK the protein stability index was 1.92.
NNSWIRKNSTMVNSEDIFLLGCLK gave a protein stability index of 1.83.
NNSWIRKNSTMVNSEDIFLLECLK showed a protein stability index of 3.8.
For NNSWIRKNSTMVNSMDIFLLLCLK, the protein stability index was 2.26.
In the case of NNSWIRKNSTMVNSVDIFLLLCLK, the protein stability index is reported as 3.11.
In the case of NNSWIRKNSTMVNSADIFLLLCLK, the protein stability index is reported as 3.44.
NNSWIRKNSTMVNSYDIFLLLCLK showed a protein stability index of 3.03.
With NNSWIRKNSTMVNSWDIFLLLCLK the protein stability index was 2.01.
In the case of NNSWIRKNSTMVNSLDIFLLLCLK, the protein stability index is reported as 2.44.
Variant NNSWIRKNSTMVNSTDIFLLLCLK has a protein stability index of 1.65.
With NNSWIRKNSTMVNSSDIFLLLCLK the protein stability index was 2.47.
NNSWIRKNSTMVNSGDIFLLLCLK showed a protein stability index of 2.29.

— the supplement of paper PMC10567573
